# Data taken from the DeepSol protein solubility set.
# Assay: soluble on expression in E. coli; label from the status in PepcDB or PDB records
row,Sequence,soluble on expression in E. coli
1,MKTFEVMIQTDSKGYLDAKFGGNAPKAFLNSNGLPTYSPKISWQKVEGAQSYALELIDHDAQKVCGMPFVHWVVGNIAHNVLEENASMMDKRIVQGVNSLTQGFIRSPLNESEKQRSNLNNSVYIGPMPPNGDHHYLIQVYALDIPKLALKAPFFLGDLHDKMRNHIIAIGRKEFLYKQFVRK,soluble
2,MKTINSVDTKEFLNHQVANLNVFTVKIHQIHWYMRGHNFFTLGEKMDDLYSEFGEQMDEVAERLLAIGGSPFSTLKEFLENASVEEAPYTKPKTMDQLMEDLVGTLELLRDEYKQGIELTDKEGDDVTNDMLIAFKASIDKHIWMFKAFLGKAPLE,soluble
3,MKTKPQAPHVDFYEKSELLHFLDCASKHENPQAFMFFRLLAFTGLRRGEALALQWSDINFETNELTVNKTQAVGKRWRTIIQTPKTNTSYRTIVLDPDTAQWLHKWKMTQARQCFELGFNANDPSQLVFTNQQNKLMSPSTVNYFNWSICKKYGLRHIKIHAFRHTFCTLAFEAHAGINEVSKTLGHADLKITEQIYLHVTKKQKNETASKLARYMSELLEHHHHHH,soluble
4,MKTKYVVIIQCDMAKNRCSGMRCTNAFYEKTDAFENYAKDTKYISFTCGGCSGKVVSSKLANFSRWLKKYDCIKKDEVTIHLSSCMSTDNSHYDRCPNIDYIKQIINKKGYTNIVEGSIFSKKSEKLRDEGIYKKYQ,not soluble
5,MKTQFIAGHARLPAGMAAKSLYDTLTITAEIDKKYGVIVEASCTLATEHGRDYVARLLRGHSLRDGIDGLLAELDEGYLGKAHSALCAALKDLYKQYCKMEEKEP,not soluble
6,MKTQHVVVVGAGMGGLAAAIDLASRGLRVTVLERSPSPGGKMREIAVGGARLDAGPTVFTMRWVFEELFADAGASLGESLRLRAAEVLARHTWGDGAPFDLFADAARSTEAVGELAGAAEAKRFVAFCARARGIWQALEGPFIRGQRPSPGELVRRSGLSGLSGLARISPFTLLWKALGEHFHDPRLRQLFGRYATYCGSSPFLAPATLMLVAHVEQQGVWMVDGGMHQIARAMADLATAKGATFRYSTTAESVLVENGKVGGLILQGGERLAADIVLINGDAAALAARCFGPQVAAAVPPVPPTARSLSAVTWGLLAEAEGFPLLRHSVFFGNDYPGEFRDIFTHGRLPSSPTVYVCAQDRGDKAPTVGPSGPRPERLLVLVNAPARGDLSFPDAMELDTCTARTFAFLERCGLTLRRTPEATRVTTPADFNSLFPATGGALYGRASHGWSATFDRPGAKTAMPGLYLAGGSVHPGPGVPMAALSGRLAAQAVLADLTSRGRLEHHHHHH,not soluble
7,MKTRITELLKIDYPIFQGGMAWVADGDLAGAVSKAGGLGIIGGGNAPKEVVKANIDKIKSLTDKPFGVNIMLLSPFVEDIVDLVIEEGVKVVTTGAGNPSKYMERFHEAGIIVIPVVPSVALAKRMEKIGADAVIAEGMEAGGHIGKLTTMTLVRQVATAISIPVIAAGGIADGEGAAAGFMLGAEAVQVGTRFVVAKESNAHPNYKEKILKARDIDTTISAQHFGHAVRAIKNQLTRDFELAEKDAFKQEDPDLEIFEQMGAGALAKAVVHGDVDGGSVMAGQIAGLVSKEETAEEILKDLYYGAAKKIQEEASRWTGVVRNDLEHHHHHH,soluble
8,MKTSDIHDVAIVGAGPAGLSAAYELIRTGFTPLVLERTPAVGDVWRNHYDGLRLNSGRFFSALPGSKFPLSAGGWPSRDEVVSLLETFPARGGFTVQTGIEVEKVSHDRERDIWLITSNDNRQFESRAVVIAAGANRIPIIPEWEGKNTFTGTIIHSSQFKSAQDYAGKHVLVVGSGNSAAEIASRLAKYADSVTMSVRTPPQILPKSIYGIPLIGIGVWTRYLPRALVDGLLNFLRRTMIGDLSVYGLPSPTISMSKQYAINNVVPILYGPFIDDVRSGRIKIVGPVQKISGGTVEVLSTVESALNGDQATTTLQPDIIVAGTGFRTGFPELIQVPGITDEKGRSKISGDQEFKGAPRLYFIGQINPLSGQLREIRLEAGRIARKLDKQLRAKLEHHHHHH,soluble
9,MKTTGAGQLGTQLGKIKTSLRQQIHTGVVSQGQKLPSERELSELFSTTRITIKDALVSLETEGLIYREERRGWYVSPERICYNPLSRSHFHQMIREQHRIAATQLISVRSEMAAGDYAKALDIEQMTPIHIIERLRCIDGRAVLFVENVLKASLFDGILAENLTMSLTGIYREKYGYETMRSRFDVIPTSAPAHVAKALNLAEGQPVLKICRVNYKQDGELMDCELEYWRPDAVMIRIDSVG,not soluble
10,MKTVLAFGDSLTWGADPATGLRHPVEHRWPDVLEAELAGKAKVHPEGLGGRTTCYDDHAGPACRNGARALEVALSCHMPLDLVIIMLGTNDIKPVHGGRAEAAVSGMRRLAQIVETFIYKPREAVPKLLIVAPPPCVAGPGGEPAGGRDIEQS,not soluble
11,MKTVRIETFGCKVNQYESEYMAEQLEKAGYVVLPDGNAAYYIVNSCAVTKEVEKKVKRLIKSIRNRNKNAKIILTGCFAQLSPDEAKNLPVDMVLGIDEKKHIVDHINSLNGKQQVVVSEPGRPVYEKVKGSFEDRTRSYIKVEDGCDNTCTYCAIRLARGTRIRSKPLEIFKEEFAEMVMKGYKEIVITGVNLGKYGKDMGSSLAELLKVIEKVPGDYRVRLSSINVEDVNDEIVKAFKRNPRLCPHLHISVQSGSDDVLKRMGRKYKISDFMRVVDKLRSIDPDFSITTDIIVGFPGETDADFQRTLELVEKVEFSRVHIFRFSPRPGTPASRMEGGVPESKKKERLDVLKEKAKDVSIRYRKRIIGKERKVLAEWYVMKGVLSGYDEYYVKHEFVGNRVGEFHSVRVKSLSEEGVISCRADMVEGKVPARGLEHHHHHH,soluble
12,MKTYYEQDANVGLLQGKTVAVIGYGSQGHAQAQNLRDSGVEVVVGVRPGKSFEVAKADGFEVMSVSEAVRTAQVVQMLLPDEQQAHVYKAEVEENLREGQMLLFSHGFNIHFGQINPPSYVDVAMVAPKSPGHLVRRVFQEGNGVPALVAVHQDATGTALHVALAYAKGVGCTRAGVIETTFQEETETDLFGEQAVLCGGVTALVKAGFETLTEGGYRPEIAYFECLHELKLIVDLMYEGGLTNMRHSISDTAEFGDYVTGSRIVTDETKKEMKRVLTEIQQGEFAKKWILENQAGRPTYNAMKKAEQNHQLEKVGEELREMMSWIHAPKELVKK,not soluble
13,MKVAICDDNPTLTEKINTMLFNYNPNIFETYTYYNPLKLVNQLDQENFDFFILDIEMSEMSGIDLAKKIRERDILSPIVFLTSYKEYMEEVFQVQTFDYLLKPPTEDRLHQVLEKLRQQLEKKRNYFVFSSNKVTYKIPTKDIIYFEKDKRQVLIHTVGEIYKPYMSTNQINEQLDTNFVQVHSSFIINCAYIKELGKNFLLMDSKEKCIEIPISRRFKAAAHKSIVMSMRGKI,not soluble
14,MKVCKFEKMKEEDEIRQVINYILKEHPYVVVVPTLTQLQEWLQDISISWFHEEDSASHTTINNIEEYCCTLADHLITDLPLNTDIKKYIRECIEKMHKLVEDKADLLIDKIIKAEIYRLSGELFACCLRQHGLNARTLDTGTFMQMNLERKPDIPYIQESIRQYINENRDTDIFIAPLSLCKNVYGEIDFMNEKRNDYYATVLASIFEADEIILSTELTNIYANRNCAREQHSLTYTEAEQLINSGVHLIYTDCITLAARSNIVIRLIDTHDLETERLYISSHDTESSVKAIIVQDSVTFVRFTSLNVLPGYLLMGKLLEVINKYQINVISMASSNVSVSMILTASRDTLRIIQRELHKYTEMVVDENMSVIHIIGSLHWERTQLESNIMETIRHIPISLISYGGSDHCFTISVHTADKKQLLNSLSQRFLERLSALEHHHHHH,not soluble
15,MKVDVEVLRNFEERLNPAKPENIKIIGYGEISTVFELPELPGIALKRIPNFKSVEQVKRYIEVYFEYIELLEGAGLRVPDSDATFVERRDGKTVLYIAQKMVGNVGNKVIQTAKADEAEEVFGRVLAEMKKVWDFNAERREEGLEIGIDGQISNWAIMEEIYYFDTSTPMIRKNGIHQLDTEVFLQACPPGIRILLKKIFLQDILDRYFDFRKVVVDMIANLYKEGREDLIPIAINLANEFFKLNGYDFEAITAKEVEKYYKEDAFIWSLYLNLRKVHRFILTKALFGRYEYILPGKIRR,not soluble
16,MKVEELAESISSYAVGILKEEGIEELFPPQAEAVEKVFSGKNLLLAMPTAAGKTLLAEMAMVREAIKGGKSLYVVPLRALAGEKYESFKKWEKIGLRIGISTGDYESRDEHLGDCDIIVTTSEKADSLIRNRASWIKAVSCLVVDEIHLLDSEKRGATLEILVTKMRRMNKALRVIGLSATAPNVTEIAEWLDADYYVSDWRPVPLVEGVLCEGTLELFDGAFSTSRRVKFEELVEECVAENGGVLVFESTRRGAEKTAVKLSAITAKYVENEGLEKAILEENEGEMSRKLAECVRKGAAFHHAGLLNGQRRVVEDAFRRGNIKVVVATPTLAAGVNLPARRVIVRSLYRFDGYSKRIKVSEYKQMAGRAGRPGMDERGEAIIIVGKRDREIAVKRYIFGEPERITSKLGVETHLRFHSLSIICDGYAKTLEELEDFFADTFFFKQNEISLSYELERVVRQLENWGMVVEAAHLAPTKLGSLVSRLYIDPLTGFIFHDVLSRMELSDIGALHLICRTPDMERLTVRKTDSWVEEEAFRLRKELSYYPSDFSVEYDWFLSEVKTALCLKDWIEEKDEDEICAKYGIAPGDLRRIVETAEWLSNAMNRIAEEVGNTSVSGLTERIKHGVKEELLELVRIRHIGRVRARKLYNAGIRNAEDIVRHREKVASLIGRGIAERVVEGISVKSLNPESAAALEHHHHHH,soluble
17,MKVELQISETYEEEKLIVQAPQETEKVQKVIEFAENLDQREKIKGKIDDQVYLVEIGKIQRFYIENRKVLAETASQTYSIDLRLYQVLKLLPTNFIQISQSEIINIDSISHLKLTPNGLVEIFLKNESFTYSSRRYLKTIKEKLEL,not soluble
18,MKVGFFLLKFPLSSETFVLNQITAFIDMGFEVEIVALQKGDTQNTHVAWTKYNLAARTRWLQDEPTGKVAKLRHRASQTLRGIHRKNTWQALNLKRYGAESWNLILSAICGQVATPFRADVFIAHFGPAGVTAAKLRELGVIHGKIATIFHGIDISSREVLNHYTPEYQQLFRRGDLMLPISDLWAGRLQKMGCPREKIAVSRMGVDMTRFSPRPVKAPATPLEIISVARLTEKKGLHVAIEACRQLKEQGVAFRYRILGIGPWERRLRTLIEQYQLEDVVEMPGFKPSHEVKAMLDDADVFLLPSVTGADGDMEGIPVALMEAMAVGIPVVSTLHSGIPELVEADKSGWLVPENDARALAQRLAAFSQLDTDELAPVVKRAREKVEHDFNQQVINRELASLLQAL,not soluble
19,MKVLIGGYTKKTSKGIYELPFIGEDNEAHLEKAENIISVGGPTYFQKDGDLVFTINNAGDEGGISAFKLSDHGSNEIDRHLTPGASPAYIGINKEKKLLYTANYHTAVLSVFQYSNSGKLALVAQTTHKAESLGPRPEQVDGPHPHFFDETPAGNLVSCDLGNDTVDFYRLENNELKHLAQYKNEAGFGDRHIVFSKDGNYFYVVGELSSQINVVKFNENTWEFEDIATYKTIPEDFTEHNGAAALYITNDGKYIYNSNRGHNSITVFKVNDDHTLSLIQRISTFGDFPRDFNWDETQKYVVAANQNTDNATLYLRNGGNGTLTPIQTEIPVPEGTRVLFTKLEHHHHHH,not soluble
20,MKVMLSLFKRESIKGITMKKSTLLNSELSYLVATLGHTDEITICDAGLPIPDEVTRIDLALTHGVPSFLETVRVILSESQIESVIVAQEFAQVSPVLHEALYRELKAEEQLCGKPIAIQYISHEAFKQRTLQSRAVVRTGECTPYANVIFQAGVVF,not soluble
